The experiment concerns TLR3-RUNX2 pathway. Put plainly: Immunoblot of human dermal fibroblasts for the TLR3-RUNX2 pathway. Conditions: wild type and empty vector control cells; 5 μg/ml, 6 h. Type of experiment: cell-based. An excerpt: Human dermal fibroblasts WT and Tlr3^−/− were kindly provided by the Jean-Laurent Casanova group and cultivated in DMEM with 4.5 g/L glucose (Lonza, Basel, Switzerland), 10% FCS (Sigma, St. Louis, MO), penicillin, streptomycin and L-Glutamine. Human dermal fibroblasts CTR cells were provided by the Villunger group and cultivated in DMEM with 4.5 g/L glucose (Lonza, Basel, Switzerland), 10% FCS (Sigma, St. Louis, MO), penicillin, streptomycin and L-Glutamine.
All cells were cultivated under standard conditions (37° C., supplied with 5% CO2). Passaging of the cells was performed at 70-90% confluency, and cells were only used until passage 7 as described previously^6. Polyinosinic: polycytidylic acid (Poly(I:C); Invivogen, San Diego, CA) was used to stimulate cells at a concentration of either 20 μg/mL or 5 μg/ml, depending on the assay. For blockade of TLR3, the commercially available dsRNA/TLR3 inhibitor ((R)-2-(3-Chloro-6-fluorobenzo [b] thiophene-2-carboxamido)-3-phenyl-propanoic acid) was used (Merck, Darmstadt, Germany) at a concentration of 1 μg/ml as described previously^1,7. LY294002 (Invivogen, San Diego, CA), a PI3K inhibitor, was used at a concentration of 10 μM. For blockade of IFNAR1, a specific blocking antibody (Invitrogen, Carlsbad, CA) was used at a concentration of 4 μg/ml. A stable HEK (human embryonic kidney) reporter cell line (TLR3/ISRE LUCPorter; Imgenex, USA) was purchased for luminometer assay experiments. Cells were cultivated according to the manufacturer's protocol in DMEM with 4.5 g/L glucose (Lonza, Switzerland), 10% FCS (Sigma, St. Louis, MO), penicillin/streptomycin, and 4 mM L-glutamine and […] puromycin (Gibco, USA) as selection agent. Reporter experiments were performed as described previously^8. For the protein expression SF21 cells were purchased at ThermoFisher (#11497013) and cultivated in Gibco™ Sf-900™ SFM supplemented with penicillin, streptomycin and L-Glutamine. In vitro stretch was applied using a Flexcell bioreactor (Flexcell International Corporation, Burlington, NC) applying 15% cyclic strain as described previously^9.
Protein from tissue or cell lysates was extracted using a Radioimmunoprecipitation Assay Lysis Puffer (150 mM NaCl, 1% NP-40, 0.5% Sodium Deoxycholate, 0.1% SDS and 50 mM Tris (pH 8,0)). For the extraction of nuclear or cytosolic proteins the NE-PER™ Nuclear and Cytoplasmic Extraction Reagents Kit (ThermoScientific, #78835) was used.
Protein was thereafter separated on SDS-polyacrylamide gels of different percentages and transferred to nitrocellulose membranes as described previously^18. After blocking with either 5% BSA in TBS 0.1% Tween, 5% milk in TBS 0.1% Tween or StartingBlock™ (TBS) Blocking buffer (ThermoScientific, #37542) membranes were incubated with primary antibodies listed in Table 2.
Background: In western blotting, separated proteins are transferred to a membrane and probed.

B1: BGN: proteoglycan biglycan (BGN), a structural protein of the extracellular matrix (ECM) (protein)
chain: DEEASGAETTSGIPDLDSLPPTYSAMCPFGCHCHLRVVQCSDLGLKAVPKEISPDTTLLDLQNNDISELRKDDFKGLQHLYALVLVNNKISKIHEKAFSPLRKLQKLYISKNHLVEIPPNLPSSLVELRIHDNRIRKVPKGVFSGLRNMNCIEMGGNPLENSGFEPGAFDGLKLNYLRISEAKLTGIPKDLPETLNELHLDHNKIQAIELEDLLRYSKLYRLGLGHNQIRMIENGSLSFLPTLRELHLDNNKLSRVPAGLPDLKLLQVVYLHTNNITKVGVNDFCPVGFGVKRAYYNGISLFNNPVPYWEVQPATFRCVTDRLAIQFGNYKK
Turning to B1, the IFNAR1 level result was “upregulation of IFNAR1”, the “levels of osteoblastic transcription factor RUNX2” value is listed as “increased levels” and the “phosphorylation of IRF3” value is “phosphorylation of IRF3”.

These data come from patent US20250011869A1, “TLR3 INHIBITORS FOR USE IN THE TREATMENT OF DISEASES ASSOCIATED WITH CARDIOVASCULAR CALCIFICATION” (priority 2021, published 2025).
